Reference: the supplement of paper PMC12764529
± gives the half width of the 95% confidence interval.

Experiments:
[1] = folding stability dG unfold from chymotrypsin proteolysis; higher = more stable
How it was run: (§1)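 How resistant each design was to proteolysis was captured as K50, inferred by Bayesian fitting of sequencing counts. Unfolding free energy was then derived relative to a sequence-predicted unfolded-state K50 and a shared folded-state K50, per protease or combined. Digestion used trypsin and chymotrypsin at 11 threefold-diluted concentrations plus a no-protease condition, on mini-proteins under 80 residues without cysteine in a PA-tagged cDNA display construct. Designs were kept only when AlphaFold2 dimer inter-PAE was above 15.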

[2] = folding stability dG unfold from trypsin proteolysis; higher = more stable
How it was run: as §1

[3] = folding stability dG unfold (combined trypsin and chymotrypsin); higher = more stable
How it was run: as §1

| Sequence | folding stability dG unfold [1] | folding stability dG unfold [2] | folding stability dG unfold [3] |
| --- | --- | --- | --- |
| SAGGSAGGSAGGIGPEIVEAALIEAKEKVPEDEEVEILVRDPVTGEVLRLRIYPDRVELGSAGGSAGGSAGG [r7_44_TrMRF] | 0.785 ± 0.14 kcal/mol | 0.384 ± 0.11 kcal/mol | 0.698 ± 0.19 kcal/mol |
| SAGGSAGGSAGGIKDVKITEFERHPENNWYEVKISIPNGKPVEIPMNPGQSAEDILDQISAGGSAGGSAGGS [r10_984_TrROS] | 0.651 ± 0.045 kcal/mol | -0.418 ± 0.19 kcal/mol | 0.421 ± 0.2 kcal/mol |
| SAGGSAGGSAGGIKLENPNGFEVYKSPDSMVEIEFVNPNGKPMRYIIQVDEPGEIKPYPVSAGGSAGGSAGG [r7_423_TrROS] | 0.0804 ± 0.23 kcal/mol | 0.0628 ± 0.13 kcal/mol | 0.0566 ± 0.2 kcal/mol |
| SAGGSAGGSAGGIYPGPGNLLYFTGEDDYVKVIKITPPDNTIKIDIEIVPKGEATKIPYSAGGSAGGSAGGS [r10_257_TrMRF] | -0.331 ± 0.28 kcal/mol | 0.161 ± 0.059 kcal/mol | -0.00595 ± 0.097 kcal/mol |
| SAGGSAGGSAGGKELEIVLYDKETNVLVTAKVRMENGKLTITEVKVEKVKPPKLPPGVKPSAGGSAGGSAGG [r7_276_TrROS_Hall] | 2.44 ± 0.071 kcal/mol | 1.48 ± 0.06 kcal/mol | 2.14 ± 0.079 kcal/mol |
| SAGGSAGGSAGGKHKIPITNVHVSPPNGYIHVTIRFPGDGKPIEIHFPVPPGEPITIEISAGGSAGGSAGGS [r10_940_TrROS] | 3.53 ± 0.27 kcal/mol | 2.28 ± 0.14 kcal/mol | 2.74 ± 0.2 kcal/mol |
| SAGGSAGGSAGGKIDRIQLHYNPGGNVYFRIYGPNGKPRYFMMPAEDLEDFPNAPIEIYPSAGGSAGGSAGG [r7_238_TrROS] | 0.847 ± 0.11 kcal/mol | 0.648 ± 0.04 kcal/mol | 0.864 ± 0.096 kcal/mol |
| SAGGSAGGSAGGKIIVVKDKETGKYRVIIVDKKTKKTIVVEVDPNTTLEEALKKAKELLKSAGGSAGGSAGG [r7_138_TrROS_Hall] | 3.97 ± 0.12 kcal/mol | 3.05 ± 0.12 kcal/mol | 3.52 ± 0.24 kcal/mol |
| SAGGSAGGSAGGKIKDIDVQQMPDGWYWVEIEIPDPNGEEVKITIMFPPGHSVDDALDQLSAGGSAGGSAGG [r7_54_TrROS] | 1.03 ± 0.093 kcal/mol | 1.01 ± 0.069 kcal/mol | 1.04 ± 0.22 kcal/mol |
| SAGGSAGGSAGGKIKILKKNKTKEEIKKELAEKYNVKKIEIKPIKGNTYLVEIEVEPEESAGGSAGGSAGGS [r10_1219_TrMRF] | 0.634 ± 0.22 kcal/mol | -0.364 ± 0.24 kcal/mol | 0.292 ± 0.25 kcal/mol |
| SAGGSAGGSAGGKIKLTVTVDADGNATVTLEIEVESPEDKPFTIRLTLTFPLKDGESLTSAGGSAGGSAGGS [r10_763_TrMRF] | 3.88 ± 0.12 kcal/mol | 3.9 ± 0.29 kcal/mol | 3.82 ± 0.17 kcal/mol |
| SAGGSAGGSAGGKIKPGQTVIFIELKITKQRDGPDGKRYMEFEIERIDIFRIPPGDNILSAGGSAGGSAGGS [r10_826_TrROS] | 3.18 ± 0.13 kcal/mol | 2.55 ± 0.068 kcal/mol | 3.03 ± 0.13 kcal/mol |
| SAGGSAGGSAGGKILVITAKIEDIPEIIEAAKKLGIDSVIIDIPETKEKIIITKDSVKLISAGGSAGGSAGG [r7_564_TrMRF] | 1.76 ± 0.089 kcal/mol | 1.54 ± 0.057 kcal/mol | 1.63 ± 0.14 kcal/mol |
| SAGGSAGGSAGGKITFAPKTTLLLTATIPVTVYSLHPDGTLTTETRSATITFTIPPELLSAGGSAGGSAGGS [r10_383_TrMRF] | 4.1 ± 0.074 kcal/mol | 2.4 ± 0.086 kcal/mol | 3.64 ± 0.12 kcal/mol |
| SAGGSAGGSAGGKIYKKKNGTYKIIIYDKKTKKVYEIEIPVSKEDKPKILKEAKELAKKSAGGSAGGSAGGS [r10_379_TrROS_Hall] | 1.49 ± 0.096 kcal/mol | 0.609 ± 0.11 kcal/mol | 1.17 ± 0.084 kcal/mol |
| SAGGSAGGSAGGKKIEIPGFEITKVEPLENDSVIAEGKFKNGKKYRILFLPNKVYINDESAGGSAGGSAGGS [r10_312_TrMRF] | 0.44 ± 0.2 kcal/mol | 0.335 ± 0.16 kcal/mol | 0.357 ± 0.16 kcal/mol |
| SAGGSAGGSAGGKKIKIPKKVKVKVVKKKDGKLLVYLEKTGKVIELPVEDLKNITAEDLSAGGSAGGSAGGS [r10_709_TrROS_Hall] | -0.63 ± 0.3 kcal/mol | 0.976 ± 0.038 kcal/mol | 0.408 ± 0.094 kcal/mol |
| SAGGSAGGSAGGKKITIVMSAEEAEALAKALEDAGIDIDNLKIEVVKVEFPPALPAEDKSAGGSAGGSAGGS [r10_602_TrROS_Hall] | 1.8 ± 0.051 kcal/mol | 1.2 ± 0.029 kcal/mol | 1.57 ± 0.074 kcal/mol |
| SAGGSAGGSAGGKKKFGFLILVKNKDDEKLYLVEVPEELSLEEFLPDQEIDEEVIKKAIGSAGGSAGGSAGG [r17_412_TrMRF] | 0.665 ± 0.27 kcal/mol | 0.823 ± 0.082 kcal/mol | 0.724 ± 0.18 kcal/mol |
| SAGGSAGGSAGGKKKIKVELEVKEDGTIRMKATTEDGEEIETEIKVEKVEVTVFLPPEKSAGGSAGGSAGGS [r10_237_TrROS_Hall] | 1.18 ± 0.23 kcal/mol | 1.74 ± 0.26 kcal/mol | 1.55 ± 0.28 kcal/mol |
| SAGGSAGGSAGGKKKKVKKKVTITIKLSAEEVAKLLKDLYPEKNIKIEENEDGSLSVTFTSAGGSAGGSAGG [r7_670_TrROS_Hall] | 2.39 ± 0.041 kcal/mol | 2 ± 0.098 kcal/mol | 2.26 ± 0.11 kcal/mol |

| Sequence | folding stability dG unfold [1] | folding stability dG unfold [2] | folding stability dG unfold [3] |
| --- | --- | --- | --- |
| SAGGSAGGSAGGKKLRIKVKNKKTGKEIEIEIDVEDKTIEEIAKELAKKLNFEVTEIEPVSAGGSAGGSAGG [r7_590_TrROS_Hall] | 2.9 ± 0.12 kcal/mol | 2.2 ± 0.18 kcal/mol | 2.74 ± 0.24 kcal/mol |
| SAGGSAGGSAGGKKLTFKAEIVSEEEIEINGKKYRIFKVKVTLPDGSKLTLTVIVELDDLSAGGSAGGSAGG [r7_846_TrROS_Hall] | 4.22 ± 0.056 kcal/mol | 2.83 ± 0.036 kcal/mol | 3.84 ± 0.096 kcal/mol |
| SAGGSAGGSAGGKKPITLTVLVTDPDGYLLQRTTTLTLDEDTNELTATTTVTRIPLEDLSAGGSAGGSAGGS [r10_1225_TrROS_Hall] | 1.97 ± 0.088 kcal/mol | 0.684 ± 0.11 kcal/mol | 1.6 ± 0.13 kcal/mol |
| SAGGSAGGSAGGKKTINVEIVKIEVTKNKKTNEYTVKIYIKDTGKTITLTVKPGDIIKISAGGSAGGSAGGS [r10_819_TrROS_Hall] | 3.28 ± 0.1 kcal/mol | 1.42 ± 0.064 kcal/mol | 3.1 ± 0.21 kcal/mol |
| SAGGSAGGSAGGKKTITVPKGAVVRITYKNGEKKEVKAGETITIEDLPEDVKIEVVKVKKSAGGSAGGSAGG [r7_968_TrROS_Hall] | 2.44 ± 0.03 kcal/mol | 1.73 ± 0.06 kcal/mol | 2.19 ± 0.094 kcal/mol |
| SAGGSAGGSAGGKKVKITVVLEFDGVLLVAEAEIEFDENGKIVEIKVKVELFPAPEEGEESAGGSAGGSAGG [r7_135_TrROS_Hall] | 2.39 ± 0.18 kcal/mol | 3.21 ± 0.36 kcal/mol | 2.96 ± 0.48 kcal/mol |
| SAGGSAGGSAGGKKVTITLKDANGKELKIEVKEGEEVTIEVGGKKYKLTVKDGKIELKPVSAGGSAGGSAGG [r7_510_TrROS_Hall] | 4.67 ± 0.23 kcal/mol | 4.03 ± 0.28 kcal/mol | 4.61 ± 0.44 kcal/mol |
| SAGGSAGGSAGGKKYKIKVYVKDKKTKKWKKIKEIEVDTKEEALEAIKKLPPNYEVKIVPSAGGSAGGSAGG [r7_307_TrROS_Hall] | 5.04 ± 0.068 kcal/mol | 4.11 ± 0.14 kcal/mol | 4.91 ± 0.14 kcal/mol |
| SAGGSAGGSAGGKKYKVVSIEKTKDYVRITIYNEETGELKTFTFPPGSTVTIKPGDTLTSAGGSAGGSAGGS [r10_834_TrROS_Hall] | 4.53 ± 0.15 kcal/mol | 3.88 ± 0.2 kcal/mol | 4.42 ± 0.12 kcal/mol |
| SAGGSAGGSAGGKPKKILNIELVLKGKDGKKYKLKIEIYNYPDKPKIYITFPDGTTIEASAGGSAGGSAGGS [r10_404_TrMRF] | 5.28 ± 0.19 kcal/mol | 3.54 ± 0.13 kcal/mol | 5.15 ± 0.21 kcal/mol |
| SAGGSAGGSAGGKPKLIVRVKIKNENGEEIEIEIEVETLDEAKEAAKKLGFEIVEVEVLSAGGSAGGSAGGS [r10_882_TrROS_Hall] | 2.54 ± 0.081 kcal/mol | 3.94 ± 0.23 kcal/mol | 3.28 ± 0.19 kcal/mol |
| SAGGSAGGSAGGKPVIYRIEVRLPDSPEREIFEIEVPPDRPEVAEELAKLLGPNVKMEPLSAGGSAGGSAGG [r11_250_TrMRF] | -0.577 ± 0.49 kcal/mol | -0.166 ± 0.1 kcal/mol | -0.387 ± 0.38 kcal/mol |
| SAGGSAGGSAGGKSYTDPNSNTVTTLDEGPGFGKVTTTTYKPEEPVPLETTESIIGPVLSSAGGSAGGSAGG [r7_343_JUSTAS] | -0.026 ± 0.11 kcal/mol | 0.367 ± 0.04 kcal/mol | 0.273 ± 0.24 kcal/mol |
| SAGGSAGGSAGGKTITLPPGMSEEELLEALKKAKPGDTITIEVDGKTYTLKVENGKITLTSAGGSAGGSAGG [r7_560_TrROS_Hall] | 3.92 ± 0.12 kcal/mol | 2.31 ± 0.14 kcal/mol | 3.56 ± 0.12 kcal/mol |
| SAGGSAGGSAGGKTIVVELEDGSKATITVDEDGNVTVEVYDEKTGEKKTFTIPAEALKPSAGGSAGGSAGGS [r10_838_TrROS_Hall] | 2.95 ± 0.066 kcal/mol | 2.53 ± 0.16 kcal/mol | 2.73 ± 0.16 kcal/mol |
| SAGGSAGGSAGGKTLRIKVEETEYVVLFPNTGRLLVIPPGYEAEIELDDAPDVLILGRPPSAGGSAGGSAGG [r11_939_TrMRF] | 1.79 ± 0.16 kcal/mol | 0.123 ± 0.18 kcal/mol | 1.34 ± 0.13 kcal/mol |
| SAGGSAGGSAGGKTLTLVFKTKEEAEEAAKKLGFKKVEVKEFKNEDGEKYLVVKIELKPSAGGSAGGSAGGS [r10_494_TrROS_Hall] | 3.1 ± 0.047 kcal/mol | 2.43 ± 0.058 kcal/mol | 2.94 ± 0.22 kcal/mol |
| SAGGSAGGSAGGKTVLISLEDLEALKKLPPGAKVKIEPIKTPEGTVYRVNVETGKIEKVPSAGGSAGGSAGG [r7_765_TrROS_Hall] | 0.175 ± 0.26 kcal/mol | -0.24 ± 0.21 kcal/mol | 0.0992 ± 0.22 kcal/mol |
| SAGGSAGGSAGGKTVWIPWDDLEELKDLPPGKKRTIHLWNPKNGRWYRITVTDNNIEIERSAGGSAGGSAGG [r7_765_TrROS] | 3.088 ± 0.013 kcal/mol | 2.36 ± 0.061 kcal/mol | 2.86 ± 0.078 kcal/mol |
| SAGGSAGGSAGGKTYTAEELRSLPPGAKITLADGKVIEVSIEQLEKEIKPGDTVRIERVPSAGGSAGGSAGG [r7_643_TrROS_Hall] | -0.404 ± 0.17 kcal/mol | 0.542 ± 0.043 kcal/mol | 0.172 ± 0.09 kcal/mol |
